Where a chain is given by its changes, count along the chain named.
T1: full-length untagged human GPNMB expressed on cells (human, UniProt Q14956 23-572)
T1 construct: also used here for GPNMB on human monocyte-derived macrophages in the functional assays; also called huGPNMB; Freestyle293-huGPNMB+
T1 sequence: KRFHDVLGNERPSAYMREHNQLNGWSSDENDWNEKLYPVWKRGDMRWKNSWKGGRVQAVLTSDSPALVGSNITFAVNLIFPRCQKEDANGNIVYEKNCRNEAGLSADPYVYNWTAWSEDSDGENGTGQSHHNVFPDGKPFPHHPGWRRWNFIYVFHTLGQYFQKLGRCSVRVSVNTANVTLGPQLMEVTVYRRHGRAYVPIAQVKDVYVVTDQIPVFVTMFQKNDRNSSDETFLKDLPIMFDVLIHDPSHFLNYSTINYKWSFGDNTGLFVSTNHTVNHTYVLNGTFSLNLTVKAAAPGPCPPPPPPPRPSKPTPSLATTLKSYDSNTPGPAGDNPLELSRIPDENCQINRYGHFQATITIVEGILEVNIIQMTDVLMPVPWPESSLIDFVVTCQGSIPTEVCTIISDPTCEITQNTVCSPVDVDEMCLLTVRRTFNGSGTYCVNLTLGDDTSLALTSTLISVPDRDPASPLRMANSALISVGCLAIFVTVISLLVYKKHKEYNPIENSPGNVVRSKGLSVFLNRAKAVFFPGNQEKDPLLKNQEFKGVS

T2: mouse GPNMB endogenously expressed on B16F10 cells (mouse, UniProt Q99P91 23-574)
T2 construct: whole, on cells; also called moGPNMB
T2 sequence (looked up): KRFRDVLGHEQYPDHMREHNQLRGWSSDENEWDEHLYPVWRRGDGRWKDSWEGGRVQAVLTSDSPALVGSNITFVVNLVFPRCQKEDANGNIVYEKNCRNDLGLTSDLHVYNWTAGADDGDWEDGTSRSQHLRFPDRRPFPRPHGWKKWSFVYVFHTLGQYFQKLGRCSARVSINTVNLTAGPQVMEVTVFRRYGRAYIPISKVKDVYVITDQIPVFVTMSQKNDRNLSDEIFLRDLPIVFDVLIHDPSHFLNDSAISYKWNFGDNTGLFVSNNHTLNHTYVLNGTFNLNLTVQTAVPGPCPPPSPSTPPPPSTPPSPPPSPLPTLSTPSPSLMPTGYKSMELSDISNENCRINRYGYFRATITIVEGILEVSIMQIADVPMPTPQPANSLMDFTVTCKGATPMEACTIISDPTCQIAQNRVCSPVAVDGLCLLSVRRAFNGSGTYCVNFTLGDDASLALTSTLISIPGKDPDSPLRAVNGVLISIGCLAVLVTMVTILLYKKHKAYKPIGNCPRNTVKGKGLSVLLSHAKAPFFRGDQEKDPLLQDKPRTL

B1: anti-GPNMB antibody GPN-11 (antibody, human IgG1, V domains shown)
VH: QVQLQQPGAELVKPGASVKLSCKASGYTFTSYWMHWVKQRPGQGLEWIGEINSSNGRTNYNEKFKTKATLTVDRSSSTAYMQLSSLTSEDSAVYYCARLGYYSGSPYPYYAMDCWGQGTSVTVSS
VL: DIQMTQSPASLSVSVGETVTITCRASENIYSNLAWYQQKQGKSPQLLVYAATNLADGVPSRFSGSGSGTQYSLKINSLQSEDFGSYYCQHFWNTPPTFGGGTKLEIK
notes: chimeric
B2: anti-GPNMB antibody GPN-26 (antibody, human IgG1, V domains shown)
VH: EVQLQQSGPELVKPGASVKISCKASGYSFTGYYMNWVRQSPEKSLEWIGEINPSTGITTYNQKFKAKATLTVDKSSNTAFMQLKSLTSEDSAVYYCARPASWFDYWGQGTLVTVSA
VL: DIQMTQSPSSLSASLGERVSLTCRASQEISGHLSWLQQKPDGTIKRLIYAASTLDSGVPKRFSGSRSGSDYSLTISSLESEDFADYYCLQYASYPYTFGGGTKLEIK
notes: chimeric
B3: anti-GPNMB antibody GPN-25 (antibody, human IgG1, V domains shown)
VH: B2 VH with R38K, S54G, T55S, N77S, F80Y, M81L, D104A
VL: B2 VL with L21F, T22I
notes: chimeric
B4: anti-GPNMB antibody GPN-31 (antibody, human IgG1, V domains shown)
VH: B2 VH with R38K, S44N, S54N, I57G, N77T, F80Y, A97T
VL: B2 VL with S65R, E105A
notes: chimeric
B5: anti-GPNMB antibody GPN-22 (antibody, human IgG1, V domains shown)
VH: QVQLQQPGAERVKPGASVKMSCKASGYTFTSYWITWVKQRPGQGLEWIGDIFPGSGSTNYHEKFKSKATLTVDTSSSTAYMQLSSLTSEDSAVYYCSRGYFGSSFSDYWGQGTSVTVSS
VL: B2 VL with A25T, H32Y, A50S, A51T, Y94S, Y96P, G100S
notes: chimeric
B6: anti-GPNMB antibody GPN-30 (antibody, human IgG1, V domains shown)
VH: EVQLQQSGPELVNPGASVRISCKASGYSFTGYYMNWVKQSPEKSLEWIGEINPNTGFTTYNQNFKAKATLTVDKSSSTAYIQLKSLTSEDSAVYYCTRPSPSFDYWGQGTTLTVSS
VL: B2 VL with V19G
notes: chimeric
B7: anti-GPNMB antibody GPN-07 (antibody, human IgG1, V domains shown)
VH: QVQLQQSGAEQVKPGASVKLSCKASGYTFTSYYMYWVKQRPGQGLEWIGEINPSNGGTYFNEKFKSKATLTVDKSSSTAYMHLSSLTSEDSAVYYCTRGGTYYAYWGQGTLVTVSA
VL: B2 VL with I29M
notes: chimeric
B8: anti-GPNMB antibody GPN-09 (antibody, human IgG1, V domains shown)
VH: B7 VH with Q11L, M34I, S66N, H82Q, T101N
VL: B2 VL with S34G, S52L
notes: chimeric

What follows are binders tested against T1, full-length untagged human GPNMB … (assay: FACS titration, FS293-huGPNMB+ cells).
Method: Cell-based binding measurements were also performed to measure the apparent affinities of anti-GPNMB antibodies of the present disclosure to cell-surface expressed GPNMB. Serial dilutions of the monoclonal anti-GPNMB antibodies were added to 100,000 Freestyle293-huGPNMB+ or B16F10 cells and allowed to achieve binding equilibrium at 4° C. After addition of fluorescently labeled secondary antibody and brief washing steps, MFI values as a function of titrated antibody concentration was recorded via FACS analysis. Curves were fit using nonlinear regression analysis with Graphpad Prism 6 software.
For B1, the EC50 was 0.3 nM. For B2, the EC50 was 1.09 nM. In the case of B3, the EC50 is reported as 0.5 nM. B4 showed an EC50 of 0.76 nM. Binder B5 has an EC50 of 0.33 nM. Work on B6 yielded an EC50 of 1.12 nM. In the case of B7, the EC50 is reported as 18.4 nM. In the case of B8, the EC50 is reported as 1.31 nM.

Each binder was assayed against T2, mouse GPNMB endogenously expressed on … (assay: FACS on B16F10 mouse melanoma cells (endogenous mouse GPNMB); single antibody concentration (not given); APC anti-human IgG secondary; MFI as fold over background).
Method: Recombinant anti-GPNMB antibodies of the present disclosure were examined for their ability to bind human and/or mouse GPNMB expressed on Freestyle293-huGPNMB+ or B16F10 cells, respectively. B16F10 cells are a murine melanoma cell line from a C57BL/6J mouse that endogenously express high levels of mouse GPNMB. The antibodies were also tested for their ability to bind to a human macrophage cell line (U937 cells) engineered to express human GPNMB. Cells were harvested, plated at 100,000 cells/well in a 96-well round bottom plate, and incubated in 100 μl FACS buffer (PBS containing 2% FBS, 2 mM EDTA) containing anti-GPNMB monoclonal antibodies of the present disclosure for 30 minutes on ice. Cells were then washed and incubated in 100 ul FACS buffer containing 1 μg/ml APC-conjugated anti-human IgG secondary antibody for 30 minutes in ice. Cells were washed twice in cold FACS buffer and acquired on a BD FACS Canto. Data analysis and calculation of MFI values was performed with FlowJo (TreeStar) software version 10.0.7. […]
B1: no binding. B2: no binding. B3: no binding. B4: no binding. B5: no binding. B6: no binding. B7: no binding. B8: no binding.

The binders below were run against T1, full-length untagged human GPNMB … (assay: cell-based or functional assay).
In the case of B1, the “CD40 (FoB)” value is reported as 1.7 FoB, the “CD80 (FoB)” value is reported as 1.25 FoB and the “GCase (FoB)” value is reported as 1.24 FoB. For the same binder, the “PDL1 (FoB)” value was 1.64 FoB. In the case of B2, the “CD40 (FoB)” value is reported as 1.91 FoB, the “CD80 (FoB)” value is reported as 1.4 FoB and the “PDL1 (FoB)” value is reported as 1.88 FoB. B3 was tested, and the “CD40 (FoB)” value was 1.68 FoB, the “CD80 (FoB)” value was 1.41 FoB and the “GCase (FoB)” value was 1.24 FoB. For the same binder, the “PDL1 (FoB)” value was 1.73 FoB. With B4 the “CD40 (FoB)” value was 1.9 FoB, the “CD80 (FoB)” value was 1.44 FoB and the “GCase (FoB)” value was 1.22 FoB. The “PDL1 (FoB)” value was 1.82 FoB. With B5 the “CD40 (FoB)” value was 1.7 FoB, the “CD80 (FoB)” value was 1.16 FoB and the “GCase (FoB)” value was 1.21 FoB. The “PDL1 (FoB)” value was 1.76 FoB. B6 was tested, and the “CD40 (FoB)” value was 1.75 FoB, the “CD80 (FoB)” value was 1.34 FoB and the “GCase (FoB)” value was 1.27 FoB. The “PDL1 (FoB)” value was 1.64 FoB. In the case of B7, the “CD40 (FoB)” value is reported as 1.39 FoB, the “CD80 (FoB)” value is reported as 1.29 FoB and the “GCase (FoB)” value is reported as 2.13 FoB. For the same binder, the “PDL1 (FoB)” value was 1.67 FoB. With B8 the “CD40 (FoB)” value was 1.49 FoB, the “CD80 (FoB)” value was 1.19 FoB and the “GCase (FoB)” value was 1.26 FoB. For the same binder, the “PDL1 (FoB)” value was 1.5 FoB.

The binders below were run against T1, full-length untagged human GPNMB … (assay: FACS, FS293-huGPNMB+ cells).
Method: Recombinant anti-GPNMB antibodies of the present disclosure were examined for their ability to bind human and/or mouse GPNMB expressed on Freestyle293-huGPNMB+ or B16F10 cells, respectively. B16F10 cells are a murine melanoma cell line from a C57BL/6J mouse that endogenously express high levels of mouse GPNMB. The antibodies were also tested for their ability to bind to a human macrophage cell line (U937 cells) engineered to express human GPNMB. Cells were harvested, plated at 100,000 cells/well in a 96-well round bottom plate, and incubated in 100 μl FACS buffer (PBS containing 2% FBS, 2 mM EDTA) containing anti-GPNMB monoclonal antibodies of the present disclosure for 30 minutes on ice. Cells were then washed and incubated in 100 ul FACS buffer containing 1 μg/ml APC-conjugated anti-human IgG secondary antibody for 30 minutes in ice. Cells were washed twice in cold FACS buffer and acquired on a BD FACS Canto. Data analysis and calculation of MFI values was performed with FlowJo (TreeStar) software version 10.0.7.
Importantly, several anti-GPNMB antibodies of the present disclosure also bound to the human macrophage cell line U937 cells engineered to express human GPNMB (U937/huGPNMB+) (FIG. 2C). In FIG. 2C, the first data point in each pair corresponds to U937/huGPNMB+ cells, and the second data point in each pair corresponds to U937/huGPNMB− cells. No anti-GPNMB antibodies bound to U937 cells deficient in human GPNMB expression (U937/huGPNMB−).
For B1, the “MFI fold over background” value was 56.2 fold. B2 was tested, and the “MFI fold over background” value was 46.3 fold. For B3, the “MFI fold over background” value was 42.7 fold. With B4 the “MFI fold over background” value was 53.8 fold. B5 was tested, and the “MFI fold over background” value was 44.8 fold. For B6, the “MFI fold over background” value was 34.4 fold. For B7, the “MFI fold over background” value was 66.5 fold. For B8, the “MFI fold over background” value was 35.1 fold.
